Assay results published in FireProtDB (doi:10.1111/j.1399-3011.1991.tb01525.x).

Conditions: Aspergillus oryzae (strain ATCC 42149 / RIB 40), Thermal, DSC, glycine 0.05 M, reversible: yes, whole UniProt chain shown

B1: Guanyl-specific ribonuclease T1 wild type, P00651 (protein)
chain: MMYSKLLTLTTLLLPTALALPSLVERACDYTCGSNCYSSSDVSTAQAAGYQLHEDGETVGSNSYPHKYNNYEGFDFSVSSPYYEWPILSSGDVYSGGSPGADRVVFNENNQLAGVITHTGASGNNFVECT
With B1 as the protein, how does the Tm (pH 2) read?
The Tm was 39.2 °C.

What about the “unfolding enthalpy (calorimetric)” value (pH 2) of the same protein?
The value was 82 kcal/mol.

What about the Tm (pH 2.5) of the same protein?
Its Tm is 45.6 °C.

And the “unfolding enthalpy (calorimetric)” value (pH 2.5)?
The value was 89.4 kcal/mol.

And the “heat capacity change of unfolding” value (pH 3, 40 °C)?
Its value is 1.19 kcal/mol/K.

What about the unfolding free energy (pH 3, 40 °C) of the same protein?
Its unfolding free energy is 2.94 kcal/mol.

What about the Tm (pH 3) of the same protein?
The Tm was 50.5 °C.

What about the “unfolding enthalpy (calorimetric)” value (pH 3) of the same protein?
Its value is 97.3 kcal/mol.

What about the Tm (pH 4) of the same protein?
Its Tm is 63.3 °C.

And the “unfolding enthalpy (calorimetric)” value (pH 4)?
The value was 110 kcal/mol.
